Measured values published in patent publication US20130251728A1 (Regeneron, published 2013).
Numbering of substitutions follows the chain as printed.

T1: monkey (Macaca fascicularis) GCGR (full-length, on HEK293 reporter cells) (monkey (Macaca fascicularis), UniProt P47871 26-477 (human entry))
T1 chain: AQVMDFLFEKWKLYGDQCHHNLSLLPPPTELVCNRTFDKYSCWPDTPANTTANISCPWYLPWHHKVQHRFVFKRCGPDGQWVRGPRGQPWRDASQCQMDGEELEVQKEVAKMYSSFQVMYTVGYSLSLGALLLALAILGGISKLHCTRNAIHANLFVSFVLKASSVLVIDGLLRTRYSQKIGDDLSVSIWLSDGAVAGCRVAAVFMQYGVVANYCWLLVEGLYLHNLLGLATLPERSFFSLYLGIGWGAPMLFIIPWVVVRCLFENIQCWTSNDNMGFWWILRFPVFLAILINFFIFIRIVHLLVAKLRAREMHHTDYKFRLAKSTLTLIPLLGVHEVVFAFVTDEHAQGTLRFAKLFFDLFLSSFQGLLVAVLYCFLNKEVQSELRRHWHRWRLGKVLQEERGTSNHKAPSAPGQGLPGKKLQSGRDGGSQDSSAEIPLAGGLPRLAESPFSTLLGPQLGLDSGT

T2: hGCGR-mmh (human)
T2 construct: also called REGN547; monovalent hGCGR
T2 chain: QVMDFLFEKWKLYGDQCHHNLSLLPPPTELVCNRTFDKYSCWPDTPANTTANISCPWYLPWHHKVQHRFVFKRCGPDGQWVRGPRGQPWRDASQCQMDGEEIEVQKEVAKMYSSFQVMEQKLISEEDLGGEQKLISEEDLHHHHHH

B1: H4H1327P (antibody, V domains shown)
VH: EVQLVESGGGLVQPGGSLRLSCAASGFTFSNYLMNWVRQAPGKGLEWLANIQEDGIEKYYVDSVKGRFTISRDNAKNSLYLQMNSLRAEDTAVYYCAREPSHYDILTGYDYYYGMDVWGQGTTVTVS
VL: DIQMTQSPSSLSASVGDRVTITCRASQGIRNDLGWYQQKPGKAPKRLIYAASSLQSGVPSRFSGSGSGTEFILTVSSLQPEDFATYYCLQYNSNPFTFGPGTKVDIK
notes: also called anti-GCGR (hIgG4) antibody designated H4H1327P
B2: H4H1328P (antibody, V domains shown)
VH: EVQLVESGGALVQPGGSLRLSCTASGFTFSNYDMHWVRQTTGKGLEWISAIDTAGDTYYPGSVKGRFTVSRENAKNSFYLQMNSLRAGDTAVYYCAREGKYYDILTGDYHYYGMDVWGQGTTVTVS
VL: B1 VL with A51T, I72T, V75I, Y91H, N94Y, F96L, P100G, V104L, D105E
notes: Fully human anti-GCGR antibody; the controls are called isotype-matched hIgG4
B3: H4H1345N (antibody, V domains shown)
VH: QVQLVQSGADVKKPGASVKVSCKVSGHILTDLSMHWVRQPPGKGLEWMAGFDPEEGKIIYAQKFQGRVTMTEDTSTDTAYMELSSLRSGDTAVYYCATSDILTGYYRDYYGLDVWGQGTTLTVSS
VL: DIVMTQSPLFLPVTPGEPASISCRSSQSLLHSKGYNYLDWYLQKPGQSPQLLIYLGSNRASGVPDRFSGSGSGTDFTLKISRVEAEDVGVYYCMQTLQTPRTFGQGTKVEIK
notes: Anti-GCGR antibody from hybridoma; the controls are called isotype-matched hIgG4
B4: H4H1617N (antibody, V domains shown)
VH: B3 VH with P40A, A49G, K57E
VL: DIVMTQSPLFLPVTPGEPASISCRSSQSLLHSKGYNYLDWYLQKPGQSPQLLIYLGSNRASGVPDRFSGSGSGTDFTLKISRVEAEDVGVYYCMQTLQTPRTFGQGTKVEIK
notes: as for B3
B5: H4H1331P (antibody, V domains shown)
VH: QVQLVESGGGVVQPGRSLRLSCAASGFTFSNFGMHWVRQAPGKGLEWVAVIWFDEIDKYYADSVKGRFTISRDNSKNTLYPQMNSLRAEDTAVYYCAREDYDILTGYYYAMDVWGQGTTVTVS
VL: DIQMTQSPSSLSASVGDRVTITCRASQGIKNDLGWYQQKPGKAPKRLIYAASRLQSGVPSRFSGSGSGTEFTLTISSLQPEDFGTYYCLQHNSHPTFGQGTKVEIK
notes: as for B2
B6: H4H1765N (antibody, V domains shown)
VH: EEQLVESGGDLVQPGGSLRLSCAASGFTLSSYEMNWVRQAPGKGLEWVSYISRGGSLIHYTDSVKGRFTISRDNAKNSLYLQMNSLRAEDTAVYYCVRDPAARYHYYYHGMDVWGQGTTVTVSS
VL: DIVMTQSPLSLPVTPGEPASISCRSSQSLLHNNGYNYLDWYLQKPGQSPQLLIYLGSSRASGVPDRFSGSGSGTDFILKISRVEAEDVGVYYCMQALQTPWTFGRGTKVEIK
notes: as for B3

molecular target: rat GCGR (full-length, on transiently transfected HEK293 reporter cells) (rat, UniProt P30082 27-485); test: cell-based or functional assay
Sequence (P30082 27-485 limits assumed): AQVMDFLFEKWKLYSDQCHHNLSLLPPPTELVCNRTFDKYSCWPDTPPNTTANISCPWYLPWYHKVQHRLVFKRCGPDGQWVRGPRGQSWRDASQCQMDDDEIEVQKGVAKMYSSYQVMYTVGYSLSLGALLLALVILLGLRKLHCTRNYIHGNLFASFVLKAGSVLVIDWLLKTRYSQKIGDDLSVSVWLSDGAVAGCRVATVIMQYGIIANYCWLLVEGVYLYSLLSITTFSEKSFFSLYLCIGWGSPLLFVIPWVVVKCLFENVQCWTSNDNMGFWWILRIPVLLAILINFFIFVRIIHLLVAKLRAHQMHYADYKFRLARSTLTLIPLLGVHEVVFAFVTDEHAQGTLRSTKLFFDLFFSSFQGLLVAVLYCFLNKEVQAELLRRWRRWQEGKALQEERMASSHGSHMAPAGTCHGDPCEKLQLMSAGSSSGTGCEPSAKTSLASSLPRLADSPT

IC50, inhibition of 100 pM GCG-stimulated luciferase activity, rat GCGR reporter cells [nM] | Binder
0.88 | B1
0.93 | B2
8.07 | B3
3.66 | B4
3.87 | B5

molecular target: mouse GCGR (full-length, on HEK293 reporter cells) (mouse, UniProt Q61606 27-485); test: cell-based or functional assay
Sequence (Q61606 27-485 limits assumed): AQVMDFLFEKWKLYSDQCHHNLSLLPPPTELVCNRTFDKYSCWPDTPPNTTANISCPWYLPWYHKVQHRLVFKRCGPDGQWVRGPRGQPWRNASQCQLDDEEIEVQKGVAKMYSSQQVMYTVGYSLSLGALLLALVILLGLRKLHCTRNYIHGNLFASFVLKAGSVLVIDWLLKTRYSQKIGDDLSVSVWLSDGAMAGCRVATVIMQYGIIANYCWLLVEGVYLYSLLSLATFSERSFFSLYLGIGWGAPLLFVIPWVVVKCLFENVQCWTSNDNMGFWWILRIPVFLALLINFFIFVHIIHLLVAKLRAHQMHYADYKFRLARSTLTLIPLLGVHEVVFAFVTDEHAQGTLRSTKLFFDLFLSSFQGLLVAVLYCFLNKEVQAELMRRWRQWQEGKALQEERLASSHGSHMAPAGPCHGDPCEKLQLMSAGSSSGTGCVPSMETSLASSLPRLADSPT

IC50, inhibition of 100 pM GCG-stimulated luciferase activity, mGCGR reporter cells [nM] | Binder
1.04 | B1
1.26 | B2
1.62 | B5

Molecular target: T1, monkey (Macaca fascicularis) GCGR …
Test: cell-based or functional assay

IC50, inhibition of 100 pM GCG-stimulated luciferase activity, mfGCGR reporter cells [nM] | Binder
2.56 | B1
2.73 | B2
75.2 | B6
3.86 | B3
4.24 | B4
8.29 | B5

molecular target: human GCGR (full-length, on HEK293 reporter cells) (human, UniProt P47871 27-477); test: cell-based or functional assay

IC50, inhibition of 100 pM GCG-stimulated luciferase activity, hGCGR reporter cells [nM] | Binder
0.39 | B1
0.24 | B2
12.8 | B6
2.22 | B3
1.25 | B4
0.66 | B5

Molecular target: T2, hGCGR-mmh
Test: SPR Biacore T100, 37C, mAb captured, antigen flowed
Protocol: (§1) Measurements were conducted on a T100 Biacore instrument. Antibodies were captured onto the Biacore sensor chip surface via a covalently-linked anti-human kappa antibody capture surface, and the soluble GCGR proteins were applied to the surface either in a monovalent (hGCGR expressed with a myc-myc-hexa-histidine C-terminal tag) or bivalent (hGCGR and MfGCGR expressed with an N-terminal Fc fusion) format.
(§2) Binding dissociation equilibrium constants and dissociative half-lives were calculated from the kinetic rate constants as: KD=kd/kₐ; t_{1/2}=(In2/kd).

Kd [nM] | T½ [h] | koff [s⁻¹] | kon [M⁻¹ s⁻¹] | Binder
1.35 | 0.1 | 0.002 | 1.48e+06 | B1
6.67 | 0.0167 | 0.0108 | 1.61e+06 | B2
0.252 | 1.73 | 0.000111 | 441000 | B6
2.12 | 0.1 | 0.00197 | 928000 | B3
0.943 | 0.167 | 0.00113 | 1.2e+06 | B4
0.533 | 0.367 | 0.000519 | 973000 | B5

molecular target: T3, hGCGR-hFc (human); test: as above
T3 construct: also called REGN316
Protocol: as §1, §2

Kd [nM] | T½ [h] | koff [s⁻¹] | kon [M⁻¹ s⁻¹] | Binder
0.157 | 0.833 | 0.000232 | 1.48e+06 | B1
0.124 | 1 | 0.000192 | 1.55e+06 | B2
0.0537 | 5.4 | 3.57e-05 | 664000 | B6
0.324 | 0.617 | 0.000309 | 952000 | B3
0.181 | 0.9 | 0.000214 | 1.18e+06 | B4
0.0779 | 2.12 | 9.12e-05 | 1.17e+06 | B5

molecular target: T4, mfGCGR-hFc (cynomolgus monkey (Macaca fascicularis)); test: as above
T4 construct: also called mfGCGR-N-terminal hFc
Protocol: as §1, §2

T4 sequence (chain, as listed by the source limits assumed): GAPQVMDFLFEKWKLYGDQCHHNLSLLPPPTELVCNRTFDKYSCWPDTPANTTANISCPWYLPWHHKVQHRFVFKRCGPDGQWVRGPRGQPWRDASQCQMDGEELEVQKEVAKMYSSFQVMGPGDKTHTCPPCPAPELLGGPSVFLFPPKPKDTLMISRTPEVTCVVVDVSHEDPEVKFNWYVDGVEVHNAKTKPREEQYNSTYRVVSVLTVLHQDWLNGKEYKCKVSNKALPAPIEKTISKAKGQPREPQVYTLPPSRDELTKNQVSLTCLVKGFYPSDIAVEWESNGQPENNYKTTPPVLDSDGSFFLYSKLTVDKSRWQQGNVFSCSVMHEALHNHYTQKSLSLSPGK

Kd [nM] | T½ [h] | koff [s⁻¹] | kon [M⁻¹ s⁻¹] | Binder
0.0357 | 2.42 | 7.94e-05 | 2.22e+06 | B1
0.0353 | 2.68 | 7.17e-05 | 2.03e+06 | B2
0.0164 | 13 | 1.48e-05 | 904000 | B6
0.101 | 1.52 | 0.000128 | 1.27e+06 | B3
0.0586 | 2.22 | 8.72e-05 | 1.49e+06 | B4
0.0257 | 4.68 | 4.12e-05 | 1.6e+06 | B5

Molecular target: T2, hGCGR-mmh
Test: SPR Biacore T100, 25C, mAb captured, antigen flowed
Protocol: as §1, §2

Kd [nM] | T½ [h] | koff [s⁻¹] | kon [M⁻¹ s⁻¹] | Binder
0.369 | 0.55 | 0.000352 | 952000 | B1
2.06 | 0.0833 | 0.00212 | 1.03e+06 | B2
0.093 | 6.32 | 3.05e-05 | 326000 | B6
0.431 | 0.567 | 0.000344 | 798000 | B3
0.187 | 0.967 | 0.000199 | 1.07e+06 | B4
0.17 | 1.73 | 0.000111 | 657000 | B5

molecular target: T3, hGCGR-hFc; test: as above
Protocol: as §1, §2

Kd [nM] | T½ [h] | koff [s⁻¹] | kon [M⁻¹ s⁻¹] | Binder
0.0338 | 4.7 | 4.1e-05 | 1.21e+06 | B1
0.201 | 0.85 | 0.000226 | 1.13e+06 | B2
0.0122 | 38.9 | 4.95e-06 | 410000 | B6
0.0724 | 3.37 | 5.72e-05 | 790000 | B3
0.0389 | 6.05 | 3.18e-05 | 818000 | B4
0.0202 | 12.5 | 1.54e-05 | 760000 | B5

molecular target: T4, mfGCGR-hFc; test: as above
Protocol: as §1, §2

Kd [nM] | T½ [h] | koff [s⁻¹] | kon [M⁻¹ s⁻¹] | Binder
0.00902 | 13.4 | 1.44e-05 | 1.6e+06 | B1
0.0529 | 2.28 | 8.46e-05 | 1.6e+06 | B2
≤ 0.00156 | 192 | ≤ 1e-06 | 643000 | B6
0.0254 | 7.95 | 2.42e-05 | 953000 | B3
0.011 | 13.9 | 1.38e-05 | 1.26e+06 | B4
0.0069 | 23.7 | 8.12e-06 | 1.17e+06 | B5
